According to patent US20150160214A1, “Quantitation of Cellular Adhesion Dynamics Across Immobilized Receptors Under Rheological Shear Flow” (Mayo Foundation for Medical Education and Research, priority 2013, published 2015):

Assays:
A1-1261 = target: T1, A1-1261 (Homo sapiens, UniProt P04275); assay: Binding of free N-terminal peptide to A1-1261 from thermal unfolding enthalpy (tryptophan fluorescence); settings: for Apparent TM of primary transition / Enthalpy of the unfolding transition ΔHT*‡: 2° Celsius/min
T1 construct: A1-1261 (amino acids D1261-P1471); made in house
Source text: (§1) This would imply a specific interaction between this N-terminal sequence and the A1 domain when covalently linked in sequence. The only way to examine such a stabilization using spectroscopy was the measurement of thermal unfolding via fluorescence. Since the N-terminal peptide also contains a single tyrosine residue, the excitation wavelength was changed to λ=295 nm in order to measure tryptophan fluorescence and the effect of the peptide on the unfolding of the A1-domain was observed indirectly. Thermal scans of 2 μM A1-1261 were performed as a function of increasing amounts of the N-terminal peptide at 2° Celsius/min. […] Thermal scans were also done in the presence of a peptide with the same amino acid composition, but a scrambled sequence. The inset of FIG. 7A compares the raw fluorescence thermal scans in the presence of 300 μM scrambled and N-terminal peptides. Unfolding in the presence of excess scrambled peptide was equivalent to unfolding in the absence of either peptide. […] Fitting the enthalpy data to a simple single site binding model yields a dissociation constant of ≈46±6 μM.
(§2) Prior to all spectroscopic thermal scans, protein samples were equilibrated at 10° Celsius for 15 min to obtain a stable baseline. CD thermal scans between 10 and 95° Celsius were recorded at λ=222 nm using a protein concentration of 1 or 2 μM in a 1 cm quartz cell under moderate stirring. Scan rates were 0.5, 1.0, 1.5 and 2.0° Celsius/min. Integration time for each data point was 20 s with a 1 nm bandwidth. Fluorescence thermal scans between 10 and 95 Celsius were recorded at an emission λ=359 nm after excitation λ=280 nm or λ=295 nm using 2 μM protein in a 1 cm quartz cell with moderate stirring. Scan rates were 0.4 or 0.6, 0.9, 1.6 and 2.0° Celsius/min. At each temperature, relative fluorescence intensity was collected for 4 s and averaged. Thermal scans in the presence of N-terminal peptide at 2.0° Celsius/min were preceded by 1 h incubations at 20° Celsius with 0.02-300 μM peptide.
For the thermal unfolding studies in the presence of peptide, the inventor treated the change in enthalpy of unfolding, ΔHT*^‡ as an observable directly proportional to the degree of binding, X, because the T* was not dependent on peptide concentration.
For the simple single site binding model, A1+P<->A1P, where P is the peptide, the degree of binding is given by
where K is the binding affinity and the free peptide, [P], concentration is given in terms of the total protein, A1T, and peptide, PT, concentrations.

[1] = target: T2, platelet GP1bα (Homo sapiens); assay: Platelet pause times and translocation velocities on immobilized A1 under shear flow, parallel-plate flow chamber (Example 1); format: cell-based; settings: 300 μM peptide incubated with immobilized A1-1261; 66 μM in whole blood and buffer
T2 construct: perfused at low shear to enable platelets to attach to the surface immobilized domains; endogenous in cells; host or cells: platelets in citrated whole blood of healthy donors
Source text: (§3) To understand the effect of the N-terminal peptide on the function of the A1-domain of vWF, the protein was expressed with (A1-1238) and without the N-terminal peptide (A1-1261). The inventor used a flow chamber to measure the dynamics of platelet interactions with A1-1238 and A1-1261. Each domain variant was immobilized on glass slides with a modified Cu^2+ chelating chemistry that enabled surface capture via the N-terminally fused histidine tag. This method ensured reproducible capture of the proteins eliminating possible structural issues associated with nonspecific immobilization on plastic or glass. The slides were completely inert to platelets. Next, 1 mL of citrated whole blood followed by Tris buffered saline was perfused at low shear to enable platelets to attach to the surface immobilized domains. After red cells were perfused away with buffer, the translocation of the remaining attached platelets over the surfaces was recorded at each shear rate and the velocities and pause times calculated from the coordinate data of each platelet on the surface as described in the methods. […] In addition, the translocation velocities were increased for A1-1238 relative to A1-1261. To determine if this N-terminal sequence could inhibit the catch bond when free in solution, the inventor incubated surface immobilized A1-1261 with excess free peptide and added the free peptide to 1 mL of whole blood and to our perfusion buffer and performed the assay.
(§4) Determination of platelet pause times. Determination of platelet pause times A Glycotech† rectangular parallel-plate flow chamber was mounted to slides with a chelated Cu 21 surface obtained from Microsurfaces Inc. # to which the A1-1261 and A1-1238 domains in TBS were immobilized by the 63His-Tag. Citrated whole blood (1 mL) obtained from informed consent of healthy donors with approval from the Baylor College of Medicine institutional review board followed by buffer was perfused through the chamber at 300s21 for A1-1261 and 700s21 for A1-1238 shear rate to attach platelets to the surface immobilized proteins using a syringe driven variable flow rate pump. The shear was increased incrementally and 1 min movies were recorded at 25 frames/s in phase contrast with 232 pixel binning on a Zeiss Axiocam MRm camera attached to a Zeiss Axio Observer D1 inverted microscope. Tracking analysis was performed using Mediacybernetics ImagePro Premier§. The resulting X-Y coordinate data for each platelet track was differentiated into instantaneous velocities using a Savitzky-Golay algorithm (Savitzky:1964) with a five data point window size and a second-order polynomial implemented into a Mathamatica notebook. These platelet tracks were retained for statistical analysis if the platelet was present for at least 1 s and travelled a total distance greater than 1 lm. Distance travelled in pixels was converted to lm given the camera pixel size=6.45 μm^2, pixel binning, and microscope magnification=400×. Pause times were determined by the amount of time (seconds) a platelets velocity was =0±0.13 μm/s, within the noise. Pause times for all platelet tracks are reported as the mean of the medians. Examples of this analysis for individual platelets and for multiple platelets are provided in the Supporting Information.
(§5) Frame by frame platelet trajectory analysis. Tracking coordinates of individual platelets in units of pixels were exported from ImagePro Premier as a text file and imported into a Mathematica notebook that calculates a Savitzky-Golay first derivative of the total distance traveled over time (Savitzky:1964). The distance was calculated from the X and Y coordinates with the following equation.
(§6) Pause times were determined from the length of time the platelet velocity remained within 0±4 pixel/sec=0.129 μm/sec as illustrated in FIG. 8B. Median pause times were calculated from velocity time profiles for all platelet tracks, stored in a list and translated to histograms for multiple platelets. […]

platelet GP1bα [2] = target: T3, platelet GP1bα (Homo sapiens, UniProt P04275); assay: as above; format: cell-based; settings: free peptide added
T3 construct: perfused at low shear to enable platelets to attach to the surface immobilized domains; endogenous in cells; host or cells: platelets in citrated whole blood of healthy donors
Source text: as §3, §4, §5, §6

[3] = Temperature-induced unfolding by fluorescence and CD, irreversible models (Example 1); format: physicochemical
Procedure: A1-1261 and A1-1238 were thermally unfolded using intrinsic protein tyrosine and tryptophan fluorescence with an excitation λ=280 nm and emission λ=359 nm and CD monitored at λ=222 nm. […] As the scan rate increases, the midpoint of the transition (apparent TM) also increases.
Thermal transitions were analyzed in terms of the observed midpoint of the transition, apparent TM, and also by a two-state irreversible model or a three-state irreversible model as described in the Supplement and the calculated parameters are summarized in FIGS. 5A to 5D. […] If the protein unfolding was at equilibrium and reversible, this apparent TM would remain constant at all scan rates. Extrapolation of the TM to a scan rate of 0° Celsius/min provides an indication of where reversible unfolding would occur under equilibrium conditions; 50° Celsius for A1-1238 and 48° Celsius for A1-1261 from both CD and fluorescence data. For the second transition observed by fluorescence that occurs with A1-1238, the TM extrapolates to about 73° Celsius in the limit of zero scan rate. Analysis by the two-state and three-state irreversible models yields an R^2>0.99 for both fluorescence and CD and a transition temperature, T*, that is independent of the temperature scan rate. In addition, the enthalpies of the transitions are independent of scan rate within experimental error FIG. 5B. FIGS. 5C and 5D show the resulting average T* and ΔHT*^‡±the standard deviation obtained from the fitting of the primary thermal transitions in FIG. 4A to 4D for CD and fluorescence and a total average for both methods. […] However, the unfolding enthalpy was statistically larger for A1-1238 (250±15 kJ/mol) than for A1-1261 (204±10 kJ/mol). The average T* and ΔHT*^‡ observed in the second fluorescence transition of A1-1238 is 89.1±2.2° Celsius and 360±14 kJ/mol.
as §2
For an irreversible two-state transition, unfolding is kinetically controlled by a first order rate constant that varies with temperature according to the Arrhenius equation (Atkins:1994). In our analysis the inventor refers to the intermediate state as the final irreversible state for all thermal transitions involving the unfolding of A1-1261 in the absence of peptide when monitored by fluoresence, CD and DSC and for A1-1238 when monitored by CD and DSC. The following equations derived below are equally valid for any two state irreversible transitions The activation energy in going from N->I is ΔG^‡=−RT ln k^‡ and the inventor expands ln k^‡ as a function of temperature in terms of Δβ=(β−β*)=(1/RT−1/RT*) using a Taylor series, where T̂* is the temperature at which ΔG^‡=0.

platelet GP1bα [4] = assay: Platelet pause times and translocation velocities on immobilized A1 under shear flow, parallel-plate flow chamber (Example 1); format: cell-based, human; settings: 5 μM protein immobilized; as a function of shear rate
Source text: as §3, §4, §5, §6

[5] = target: T4, Recombinant human vWF A1-1261 (amino acids D1261-P1471), N-terminal truncated variant (human, UniProt P04275 1261-1471); assay: thermal unfolding of 2 µM A1-1261, tryptophan fluorescence at 359 nm (excitation 295 nm)
T4 construct: Lacks the linker residues Q1238-E1260; also called truncated A1
Source text: as §1, with “indirectly.” for “indirectly. Thermal scans of 2 μM A1-1261 were performed as a function of increasing amounts of the N-terminal peptide at 2° Celsius/min.”

[6] = A1-1261 in presence of free N-terminal peptide

QLPTGVLGEPSDAVPTVYEVTPPG (SEQ ID NO.:2) [scrambled peptide, reference compound]
Effect of peptide on unfolding enthalpy of A1-1261 (A1-1261; saturating peptide concentrations): did not change the unfolding enthalpy | Effect of free peptide on platelet pause times on immobilized A1-1261 [1]: did not significantly change the pause times or translocation velocities | Effect of free peptide on platelet pause times or translocation velocities on immobilized A1-1238 (platelet GP1bα [2]): did not significantly change the pause times or translocation velocities

A1-1261: N-terminal truncated recombinant human vWF A1 domain, amino acids D1261-P1471, with N-terminal 6×His-Tag
Average T*, peptide-induced second fluorescence transition [3, 6]: 90.1±8.5 ° Celsius | Average ΔHT*‡, peptide-induced second fluorescence transition [3, 6]: 33.9 ± 8.87 kcal/mol | Apparent TM extrapolated to a scan rate of 0° Celsius/min, primary transition ([3]; CD and fluorescence data): 48 ° Celsius | Transition temperature T*, primary unfolding transition ([3]; average of CD and fluorescence): 64.5±0.9 ° Celsius | Unfolding enthalpy ΔHT*‡, primary unfolding transition ([3]; average of CD and fluorescence): 48.8 ± 2.39 kcal/mol | Apparent TM of primary transition (A1-1261; 2 μM A1-1261, absence of peptide, excitation 295 nm): 53 ° Celsius | Enthalpy of the unfolding transition ΔHT*‡ (A1-1261; 2 μM A1-1261, low end of N-terminal peptide titration): ≈ 197 kJ/mol | Enthalpy of the unfolding transition ΔHT*‡ (A1-1261; 2 μM A1-1261, saturating N-terminal peptide): ≈ 242 kJ/mol | Apparent TM of primary transition (A1-1261; 2 μM A1-1261, saturating concentrations of N-terminal peptide): 55.5 ° Celsius | Platelet pause times on immobilized domain (comparison) (platelet GP1bα [4]): longer pause times than A1-1238

B1: scrambled peptide (QLPTGVLGEPSDAVPTVYEVTPPG) (peptide)
peptide: H-QLPTGVLGEPSDAVPTVYEVTPPG-OH
notes: Synthetic control peptide, said to have the same amino acid composition as the N-terminal peptide in scrambled order
binding result [5]: no binding (tested: 300 µM)
